Sequences and labels used below:
B1: Kif7-DM-GFP (1-543aa) (domain or fragment, human, UniProt Q2M1P5 1-543, looked up)
chain: MGLEAQRLPGAEEAPVRVALRVRPLLPKELLHGHQSCLQVEPGLGRVTLGRDRHFGFHVVLAEDAGQEAVYQACVQPLLEAFFEGFNATVFAYGQTGSGKTYTMGEASVASLLEDEQGIVPRAMAEAFKLIDENDLLDCLVHVSYLEVYKEEFRDLLEVGTASRDIQLREDERGNVVLCGVKEVDVEGLDEVLSLLEMGNAARHTGATHLNHLSSRSHTVFTVTLEQRGRAPSRLPRPAPGQLLVSKFHFVDLAGSERVLKTGSTGERLKESIQINSSLLALGNVISALGDPQRRGSHIPYRDSKITRILKDSLGGNAKTVMIACVSPSSSDFDETLNTLNYASRAQNIRNRATVNWRPEAERPPEETASGARGPPRHRSETRIIHRGRRAPGPATASAAAAMRLGAECARYRACTDAAYSLLRELQAEPGLPGAAARKVRDWLCAVEGERSALSSASGPDSGIESASVEDQAAQGAGGRKEDEGAQQLLTLQNQVARLEEENRDFLAALEDAMEQYKLQSDRLREQQEEMVELRLRLELVRP

Data set [1] has as its target GDP-taxol stabilized microtubules (bovine tubulin) (bovine) (UniProt Q6B856). The experiment in a line: co-sedimentation.
Data set [2] shares this target. Put plainly: co-sedimentation. The source holds these as a separate data set.
Data set [3] concerns the molecule itself. The experiment in a line: single molecule fluorescence intensity and step-photobleaching analysis.
For data set [4], the target named is T1, Kif7-DM (1-543aa) (human, UniProt Q2M1P5 1-543).
T1 sequence (looked up): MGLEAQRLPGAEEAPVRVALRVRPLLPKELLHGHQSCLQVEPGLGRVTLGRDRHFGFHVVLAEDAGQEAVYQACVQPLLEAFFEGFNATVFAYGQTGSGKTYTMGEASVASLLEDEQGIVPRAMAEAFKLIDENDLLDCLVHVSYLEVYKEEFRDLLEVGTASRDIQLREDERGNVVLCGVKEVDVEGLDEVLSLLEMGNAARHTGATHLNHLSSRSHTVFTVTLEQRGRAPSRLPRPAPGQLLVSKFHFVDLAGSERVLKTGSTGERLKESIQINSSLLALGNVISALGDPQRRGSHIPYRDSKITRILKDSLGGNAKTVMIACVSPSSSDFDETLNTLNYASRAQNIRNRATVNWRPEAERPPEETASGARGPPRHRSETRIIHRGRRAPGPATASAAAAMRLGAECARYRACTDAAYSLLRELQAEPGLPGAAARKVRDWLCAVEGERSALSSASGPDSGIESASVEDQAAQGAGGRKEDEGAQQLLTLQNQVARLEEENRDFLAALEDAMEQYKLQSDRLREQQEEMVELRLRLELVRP
The experiment in a line: BLI. A general note: BLI is a label-free optical method that tracks binding on a fibre tip over time.

Data set [5] has as its target B1. The experiment in a line: TIRF microscopy, recruitment to immobilised microtubules.
Data set [6] addresses T2, Kif7-DM(E502A)-GFP (human, UniProt Q2M1P5 1-543, E502A).
T2 sequence (looked up): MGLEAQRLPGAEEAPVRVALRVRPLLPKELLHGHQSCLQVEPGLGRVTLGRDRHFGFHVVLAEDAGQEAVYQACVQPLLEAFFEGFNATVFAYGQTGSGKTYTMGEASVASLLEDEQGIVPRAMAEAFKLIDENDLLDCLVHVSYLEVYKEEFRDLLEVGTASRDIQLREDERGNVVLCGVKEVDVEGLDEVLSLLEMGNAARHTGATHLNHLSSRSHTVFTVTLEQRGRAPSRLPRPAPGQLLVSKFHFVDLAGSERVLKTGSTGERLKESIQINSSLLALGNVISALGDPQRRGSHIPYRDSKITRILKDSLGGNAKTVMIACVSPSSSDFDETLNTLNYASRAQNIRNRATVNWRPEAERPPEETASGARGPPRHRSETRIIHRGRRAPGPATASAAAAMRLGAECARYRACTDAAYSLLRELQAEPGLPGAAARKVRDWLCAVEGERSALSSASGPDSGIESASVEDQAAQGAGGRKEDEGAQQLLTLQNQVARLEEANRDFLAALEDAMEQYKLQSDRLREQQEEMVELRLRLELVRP
Described as above.

Like-named read-outs stand apart in the source and are kept apart here.

This note sets out measurements from paper PMC10016618 (Nature cell biology, 2021).

One may read the Kd as the concentration at which binding is half-saturated. A lower Kd goes with higher affinity. Broadly, the stoichiometry N is a count of units in the complex or per binding partner.

Consider B1, for which the Kd in data set [1] is 4.23 µM; in data set [2], 540 nM. Moreover, the “stoichiometry N” value in data set [3] is 2.

B2: Gli2-ZF-SNAP (domain or fragment, human, UniProt P10070 418-604, looked up)
chain: KEDLDRDDCKQEAEVVIYETNCHWEDCTKEYDTQEQLVHHINNEHIHGEKKEFVCRWQACTREQKPFKAQYMLVVHMRRHTGEKPHKCTFEGCSKAYSRLENLKTHLRSHTGEKPYVCEHEGCNKAFSNASDRAKHQNRTHSNEKPYICKIPGCTKRYTDPSSLRKHVKTVHGPDAHVTKKQRNDVH
modifications: Alexa-647 label (TIRFM assays)
In data set [4], B2 came in with a Kd of 99 ± 23 nM. For the same molecule, the “fold enrichment of Gli2-ZF on microtubules over no kinesin control” value in data set [5] was ~9 fold. The binding result in data set [6] was “binds”.
